To fix the notation:
B1: dBBDu183H S100aR / dBBDu072L (antibody, name in Kabat numbering, V domains shown)
VH: QVQLVESGGGLVQPGRSLRLSCAASGFTFSNAWMHWVRQAPGKGLEWVAQIKDKGNAYAAYYAPSVKGRFTISRDDSKNSIYLQMNSLKTEDTAVYYCHYVHYASARTVLPAFGVDAWGQGTTVTVSS
VL: DIVMTQSPLSLPVTPGEPASISCQASQELVHMNRNTYLHWYQQKPGQAPRLLIYKVSNRFPGVPDRFSGSGSGTDFTLKISRVEAEDVGVYYCAQGTSVPFTFGQGTKLEIK
B2: dBBDu183H F100gR / dBBDu072L (antibody, name in Kabat numbering, V domains shown)
VH: B1 VH with R107S, F113R
VL: B1 VL
B3: dBBDu183H D101W / dBBDu072L (antibody, name in Kabat numbering, V domains shown)
VH: B1 VH with R107S, D116W
VL: B1 VL
B4: dBBDu183H G100hW / dBBDu072L (antibody, name in Kabat numbering, V domains shown)
VH: B1 VH with R107S, G114W
VL: B1 VL
B5: dBBDu183H S100aF / dBBDu072L (antibody, name in Kabat numbering, V domains shown)
VH: B1 VH with R107F
VL: B1 VL
B6: dBBDu183H A98W / dBBDu072L (antibody, name in Kabat numbering, V domains shown)
VH: B1 VH with A104W, R107S
VL: B1 VL
B7: dBBDu183H A98F / dBBDu072L (antibody, name in Kabat numbering, V domains shown)
VH: B1 VH with A104F, R107S
VL: B1 VL
B8: dBBDu183H S100aW / dBBDu072L (antibody, name in Kabat numbering, V domains shown)
VH: B1 VH with R107W
VL: B1 VL
B9: dBBDu183H L100dF / dBBDu072L (antibody, name in Kabat numbering, V domains shown)
VH: B1 VH with R107S, L110F
VL: B1 VL
B10: dBBDu183H A100fR / dBBDu072L (antibody, name in Kabat numbering, V domains shown)
VH: B1 VH with R107S, A112R
VL: B1 VL
B11: dBBDu183H D101F / dBBDu072L (antibody, name in Kabat numbering, V domains shown)
VH: B1 VH with R107S, D116F
VL: B1 VL
B12: dBBDu183H A100Y / dBBDu072L (antibody, name in Kabat numbering, V domains shown)
VH: B1 VH with A106Y, R107S
VL: B1 VL
B13: dBBDu183H V95W / dBBDu072L (antibody, name in Kabat numbering, V domains shown)
VH: B1 VH with V101W, R107S
VL: B1 VL
B14: dBBDu183H G100hR / dBBDu072L (antibody, name in Kabat numbering, V domains shown)
VH: B1 VH with R107S, G114R
VL: B1 VL
B15: dBBDu183H P100eW / dBBDu072L (antibody, name in Kabat numbering, V domains shown)
VH: B1 VH with R107S, P111W
VL: B1 VL
B16: dBBDu183H H93Y / dBBDu072L (antibody, name in Kabat numbering, V domains shown)
VH: B1 VH with H99Y, R107S
VL: B1 VL
B17: dBBDu183H G100hF / dBBDu072L (antibody, name in Kabat numbering, V domains shown)
VH: B1 VH with R107S, G114F
VL: B1 VL
B18: dBBDu183H L100dR / dBBDu072L (antibody, name in Kabat numbering, V domains shown)
VH: B1 VH with R107S, L110R
VL: B1 VL
B19: dBBDu183H T100bW / dBBDu072L (antibody, name in Kabat numbering, V domains shown)
VH: B1 VH with R107S, T108W
VL: B1 VL
B20: dBBDu183H H93F / dBBDu072L (antibody, name in Kabat numbering, V domains shown)
VH: B1 VH with H99F, R107S
VL: B1 VL
B21: dBBDu183H V100iF / dBBDu072L (antibody, name in Kabat numbering, V domains shown)
VH: B1 VH with R107S, V115F
VL: B1 VL
B22: dBBDu183H T100bF / dBBDu072L (antibody, name in Kabat numbering, V domains shown)
VH: B1 VH with R107S, T108F
VL: B1 VL
B23: dBBDu183H V100iW / dBBDu072L (antibody, name in Kabat numbering, V domains shown)
VH: B1 VH with R107S, V115W
VL: B1 VL
B24: dBBDu183H V95Y / dBBDu072L (antibody, name in Kabat numbering, V domains shown)
VH: B1 VH with V101Y, R107S
VL: B1 VL
B25: dBBDu183H T100bR / dBBDu072L (antibody, name in Kabat numbering, V domains shown)
VH: B1 VH with R107S, T108R
VL: B1 VL
B26: dBBDu183H A102F / dBBDu072L (antibody, name in Kabat numbering, V domains shown)
VH: B1 VH with R107S, A117F
VL: B1 VL
B27: dBBDu183H S99F / dBBDu072L (antibody, name in Kabat numbering, V domains shown)
VH: B1 VH with S105F, R107S
VL: B1 VL
B28: dBBDu183H A100F / dBBDu072L (antibody, name in Kabat numbering, V domains shown)
VH: B1 VH with A106F, R107S
VL: B1 VL
B29: dBBDu183H P100eF / dBBDu072L (antibody, name in Kabat numbering, V domains shown)
VH: B1 VH with R107S, P111F
VL: B1 VL
B30: dBBDu183H V95F / dBBDu072L (antibody, name in Kabat numbering, V domains shown)
VH: B1 VH with V101F, R107S
VL: B1 VL
B31: dBBDu183H A100W / dBBDu072L (antibody, name in Kabat numbering, V domains shown)
VH: B1 VH with A106W, R107S
VL: B1 VL
B32: dBBDu183H V100iR / dBBDu072L (antibody, name in Kabat numbering, V domains shown)
VH: B1 VH with R107S, V115R
VL: B1 VL
B33: dBBDu183H A102W / dBBDu072L (antibody, name in Kabat numbering, V domains shown)
VH: B1 VH with R107S, A117W
VL: B1 VL
B34: dBBDu183H V100cF / dBBDu072L (antibody, name in Kabat numbering, V domains shown)
VH: B1 VH with R107S, V109F
VL: B1 VL
B35: dBBDu183H A100fF / dBBDu072L (antibody, name in Kabat numbering, V domains shown)
VH: B1 VH with R107S, A112F
VL: B1 VL
B36: dBBDu183H A98Y / dBBDu072L (antibody, name in Kabat numbering, V domains shown)
VH: B1 VH with A104Y, R107S
VL: B1 VL
B37: dBBDu183H H93W / dBBDu072L (antibody, name in Kabat numbering, V domains shown)
VH: B1 VH with H99W, R107S
VL: B1 VL
B38: dBBDu183H S99W / dBBDu072L (antibody, name in Kabat numbering, V domains shown)
VH: B1 VH with S105W, R107S
VL: B1 VL
B39: dBBDu183H Y94W / dBBDu072L (antibody, name in Kabat numbering, V domains shown)
VH: B1 VH with Y100W, R107S
VL: B1 VL
B40: dBBDu183H A102R / dBBDu072L (antibody, name in Kabat numbering, V domains shown)
VH: B1 VH with R107S, A117R
VL: B1 VL
B41: dBBDu183H A100fW / dBBDu072L (antibody, name in Kabat numbering, V domains shown)
VH: B1 VH with R107S, A112W
VL: B1 VL
B42: dBBDu183H S100aY / dBBDu072L (antibody, name in Kabat numbering, V domains shown)
VH: B1 VH with R107Y
VL: B1 VL
B43: dBBDu183H D101R / dBBDu072L (antibody, name in Kabat numbering, V domains shown)
VH: B1 VH with R107S, D116R
VL: B1 VL
B44: dBBDu183H V63Y / dBBDu072L (antibody, name in Kabat numbering, V domains shown)
VH: B1 VH with V66Y, R107S
VL: B1 VL

Changes are numbered by the printed parent chain. In names and notes the source's numbering stands.

Here are results for 44 molecules from patent publication US20210388087A1.

For the test, the target named is Human CD137 ECD (human). Put plainly: SPR, vs parent H183/L072. (In general: SPR reads the build-up and loss of mass on a sensor chip optically.)
Chain of Human CD137 ECD (human) (chain, as listed by the source limits assumed): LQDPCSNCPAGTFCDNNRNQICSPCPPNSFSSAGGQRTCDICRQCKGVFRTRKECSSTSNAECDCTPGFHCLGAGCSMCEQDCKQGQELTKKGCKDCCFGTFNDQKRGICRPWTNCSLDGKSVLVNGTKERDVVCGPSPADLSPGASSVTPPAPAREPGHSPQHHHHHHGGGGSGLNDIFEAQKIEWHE
As for B1, the fold change of affinity is 0 fold.

With B2, the fold change of affinity was found to be 0 fold.

Consider B3, for which the fold change of affinity came out at 0 fold.

Consider B4, for which the fold change of affinity came out at 0 fold.

On to B5, for which the fold change of affinity amounted to 0 fold.

As to B6, the fold change of affinity was found to be 0 fold.

Turning to B7, the fold change of affinity is 0 fold.

Consider B8, for which the fold change of affinity was 0 fold.

In the case of B9, the fold change of affinity is 0 fold.

Take B10: the fold change of affinity turned out to be 0 fold.

For the molecule B11, the fold change of affinity worked out at 0 fold.

With B12, the fold change of affinity is 0 fold.

B13: the fold change of affinity turned out to be 0 fold.

For B14, the fold change of affinity is 0 fold.

For the molecule B15, the fold change of affinity worked out at 0 fold.

As to B16, the fold change of affinity is 0 fold.

For the molecule B17, the fold change of affinity was determined as 0 fold.

B18: the fold change of affinity was 0 fold.

In the case of B19, the fold change of affinity amounted to 0 fold.

Take B20: the fold change of affinity worked out at 0 fold.

Consider B21, for which the fold change of affinity came to 0 fold.

B22: the fold change of affinity is 0 fold.

On to B23, for which the fold change of affinity was found to be 0 fold.

As for B24, the fold change of affinity came out at 0 fold.

Consider B25, for which the fold change of affinity worked out at 0 fold.

For the molecule B26, the fold change of affinity came to 0 fold.

Take B27: the fold change of affinity amounted to 0 fold.

In the case of B28, the fold change of affinity is 0 fold.

On to B29, for which the fold change of affinity came to 0 fold.

Consider B30, for which the fold change of affinity is 0 fold.

In the case of B31, the fold change of affinity turned out to be 0 fold.

Consider B32, for which the fold change of affinity worked out at 0 fold.

On to B33, for which the fold change of affinity amounted to 0 fold.

Regarding B34, the fold change of affinity came to 0 fold.

For the molecule B35, the fold change of affinity was 0 fold.

B36: the fold change of affinity came to 0 fold.

On to B37, for which the fold change of affinity amounted to 0 fold.

Consider B38, for which the fold change of affinity is 0 fold.

Turning to B39, the fold change of affinity turned out to be 0 fold.

Take B40: the fold change of affinity was determined as 0 fold.

Take B41: the fold change of affinity was 0 fold.

With B42, the fold change of affinity was 0 fold.

As for B43, the fold change of affinity came to 0 fold.

Take B44: the fold change of affinity is 0 fold.
